{"source": "the Human Domainome abundance scans (Beltran et al. 2025)", "parents": {"B1": {"name": "Receptor-interacting serine/threonine-protein kinase 2, residues 438 to 518; numbered along this chain, O43353 (parent)", "chain": "QWIQSKREDIVNQMTEACLNQSLDALLSRDLIMKEDYELVSTKPTRTSKVRQLLDTTDIQGEEFAKVIVQKLKDNKQMGLQ"}, "B2": {"name": "Protein maelstrom homolog, residues 3 to 71; numbered along this chain, Q96JY0 (parent)", "chain": "NRKASRNAYYFFVQEKIPELRRRGLPVARVADAIPYCSSDWALLREEEKEKYAEMAREWRAAQGKDPGP"}}, "note": "± gives the uncertainty stated by the source."}
{"variants_of": "B1", "test": "abundance fitness (aPCA) (normalised: wild type 0, dead -1); higher = more abundant; growth selection in yeast, the domain comes from the species named", "details": "Homo sapiens"}
{"variant": "QHIQSKREDIVNQMTEACLNQSLDALLSRDLIMKEDYELVSTKPTRTSKVRQLLDTTDIQGEEFAKVIVQKLKDNKQMGLQ", "note": "[W2H]", "abundance fitness": "-0.684 ± 0.24"}
{"variant": "QKIQSKREDIVNQMTEACLNQSLDALLSRDLIMKEDYELVSTKPTRTSKVRQLLDTTDIQGEEFAKVIVQKLKDNKQMGLQ", "note": "[W2K]", "abundance fitness": "-0.435 ± 0.14"}
{"variant": "QGIQSKREDIVNQMTEACLNQSLDALLSRDLIMKEDYELVSTKPTRTSKVRQLLDTTDIQGEEFAKVIVQKLKDNKQMGLQ", "note": "[W2G]", "abundance fitness": "-0.546 ± 0.084"}
{"variant": "QLIQSKREDIVNQMTEACLNQSLDALLSRDLIMKEDYELVSTKPTRTSKVRQLLDTTDIQGEEFAKVIVQKLKDNKQMGLQ", "note": "[W2L]", "abundance fitness": "-0.45 ± 0.074"}
{"variant": "QEIQSKREDIVNQMTEACLNQSLDALLSRDLIMKEDYELVSTKPTRTSKVRQLLDTTDIQGEEFAKVIVQKLKDNKQMGLQ", "note": "[W2E]", "abundance fitness": "-0.438 ± 0.11"}
{"variant": "QIIQSKREDIVNQMTEACLNQSLDALLSRDLIMKEDYELVSTKPTRTSKVRQLLDTTDIQGEEFAKVIVQKLKDNKQMGLQ", "note": "[W2I]", "abundance fitness": "0.069 ± 0.43"}
{"variant": "QDIQSKREDIVNQMTEACLNQSLDALLSRDLIMKEDYELVSTKPTRTSKVRQLLDTTDIQGEEFAKVIVQKLKDNKQMGLQ", "note": "[W2D]", "abundance fitness": "-0.232 ± 0.31"}
{"variant": "QCIQSKREDIVNQMTEACLNQSLDALLSRDLIMKEDYELVSTKPTRTSKVRQLLDTTDIQGEEFAKVIVQKLKDNKQMGLQ", "note": "[W2C]", "abundance fitness": "-0.556 ± 0.18"}
{"variant": "QMIQSKREDIVNQMTEACLNQSLDALLSRDLIMKEDYELVSTKPTRTSKVRQLLDTTDIQGEEFAKVIVQKLKDNKQMGLQ", "note": "[W2M]", "abundance fitness": "-0.4 ± 0.12"}
{"variant": "RWIQSKREDIVNQMTEACLNQSLDALLSRDLIMKEDYELVSTKPTRTSKVRQLLDTTDIQGEEFAKVIVQKLKDNKQMGLQ", "note": "[Q1R]", "abundance fitness": "-0.389 ± 0.47"}
{"variant": "HWIQSKREDIVNQMTEACLNQSLDALLSRDLIMKEDYELVSTKPTRTSKVRQLLDTTDIQGEEFAKVIVQKLKDNKQMGLQ", "note": "[Q1H]", "abundance fitness": "-0.398 ± 0.4"}
{"variant": "LWIQSKREDIVNQMTEACLNQSLDALLSRDLIMKEDYELVSTKPTRTSKVRQLLDTTDIQGEEFAKVIVQKLKDNKQMGLQ", "note": "[Q1L]", "abundance fitness": "-0.399 ± 0.28"}
{"variants_of": "B2", "test": "abundance fitness (aPCA) (normalised: wild type 0, dead -1); higher = more abundant; growth selection in yeast, the domain comes from the species named", "details": "Homo sapiens"}
{"variant": "NRKASRNAYYFFVQEKIPELRRRGLPVARVADAIPYCSSDWALLREEEKEKYAEMAREWRAAQGKDPGY", "note": "[P69Y]", "abundance fitness": "0.162 ± 0.36"}
{"variant": "NRKASRNAYYFFVQEKIPELRRRGLPVARVADAIPYCSSDWALLREEEKEKYAEMAREWRAAQGKDPGE", "note": "[P69E]", "abundance fitness": "0.168 ± 0.31"}
{"variant": "NRKASRNAYYFFVQEKIPELRRRGLPVARVADAIPYCSSDWALLREEEKEKYAEMAREWRAAQGKDPGM", "note": "[P69M]", "abundance fitness": "-0.144 ± 0.14"}
{"variant": "NRKASRNAYYFFVQEKIPELRRRGLPVARVADAIPYCSSDWALLREEEKEKYAEMAREWRAAQGKDPGF", "note": "[P69F]", "abundance fitness": "0.035 ± 0.17"}
{"variant": "NRKASRNAYYFFVQEKIPELRRRGLPVARVADAIPYCSSDWALLREEEKEKYAEMAREWRAAQGKDPGW", "note": "[P69W]", "abundance fitness": "0.11 ± 0.48"}
{"variant": "NRKASRNAYYFFVQEKIPELRRRGLPVARVADAIPYCSSDWALLREEEKEKYAEMAREWRAAQGKDPGA", "note": "[P69A]", "abundance fitness": "-0.007 ± 0.091"}
{"variant": "NRKASRNAYYFFVQEKIPELRRRGLPVARVADAIPYCSSDWALLREEEKEKYAEMAREWRAAQGKDPGR", "note": "[P69R]", "abundance fitness": "0.397 ± 0.18"}
{"variant": "NRKASRNAYYFFVQEKIPELRRRGLPVARVADAIPYCSSDWALLREEEKEKYAEMAREWRAAQGKDPGL", "note": "[P69L]", "abundance fitness": "0.189 ± 0.13"}
{"variant": "NRKASRNAYYFFVQEKIPELRRRGLPVARVADAIPYCSSDWALLREEEKEKYAEMAREWRAAQGKDPGG", "note": "[P69G]", "abundance fitness": "0.392 ± 0.19"}
{"variant": "NRKASRNAYYFFVQEKIPELRRRGLPVARVADAIPYCSSDWALLREEEKEKYAEMAREWRAAQGKDPGS", "note": "[P69S]", "abundance fitness": "0.126 ± 0.083"}
{"variant": "NRKASRNAYYFFVQEKIPELRRRGLPVARVADAIPYCSSDWALLREEEKEKYAEMAREWRAAQGKDPGH", "note": "[P69H]", "abundance fitness": "-0.049 ± 0.17"}
{"variant": "NRKASRNAYYFFVQEKIPELRRRGLPVARVADAIPYCSSDWALLREEEKEKYAEMAREWRAAQGKDPGV", "note": "[P69V]", "abundance fitness": "0.013 ± 0.086"}
{"variant": "NRKASRNAYYFFVQEKIPELRRRGLPVARVADAIPYCSSDWALLREEEKEKYAEMAREWRAAQGKDPGC", "note": "[P69C]", "abundance fitness": "0.071 ± 0.17"}
{"variant": "NRKASRNAYYFFVQEKIPELRRRGLPVARVADAIPYCSSDWALLREEEKEKYAEMAREWRAAQGKDPGQ", "note": "[P69Q]", "abundance fitness": "-0.281 ± 0.35"}
{"variant": "NRKASRNAYYFFVQEKIPELRRRGLPVARVADAIPYCSSDWALLREEEKEKYAEMAREWRAAQGKDPGN", "note": "[P69N]", "abundance fitness": "-0.341 ± 0.38"}
{"variant": "NRKASRNAYYFFVQEKIPELRRRGLPVARVADAIPYCSSDWALLREEEKEKYAEMAREWRAAQGKDPGI", "note": "[P69I]", "abundance fitness": "-0.556 ± 0.39"}
{"variant": "NRKASRNAYYFFVQEKIPELRRRGLPVARVADAIPYCSSDWALLREEEKEKYAEMAREWRAAQGKDPGK", "note": "[P69K]", "abundance fitness": "0.411 ± 0.11"}
{"variant": "NRKASRNAYYFFVQEKIPELRRRGLPVARVADAIPYCSSDWALLREEEKEKYAEMAREWRAAQGKDPVP", "note": "[G68V]", "abundance fitness": "-0.376 ± 0.072"}
{"variant": "NRKASRNAYYFFVQEKIPELRRRGLPVARVADAIPYCSSDWALLREEEKEKYAEMAREWRAAQGKDPYP", "note": "[G68Y]", "abundance fitness": "-0.646 ± 0.18"}
{"variant": "NRKASRNAYYFFVQEKIPELRRRGLPVARVADAIPYCSSDWALLREEEKEKYAEMAREWRAAQGKDPNP", "note": "[G68N]", "abundance fitness": "-0.459 ± 0.26"}
{"variant": "NRKASRNAYYFFVQEKIPELRRRGLPVARVADAIPYCSSDWALLREEEKEKYAEMAREWRAAQGKDPTP", "note": "[G68T]", "abundance fitness": "-0.186 ± 0.15"}
{"variant": "NRKASRNAYYFFVQEKIPELRRRGLPVARVADAIPYCSSDWALLREEEKEKYAEMAREWRAAQGKDPMP", "note": "[G68M]", "abundance fitness": "-0.048 ± 0.086"}
{"variant": "NRKASRNAYYFFVQEKIPELRRRGLPVARVADAIPYCSSDWALLREEEKEKYAEMAREWRAAQGKDPQP", "note": "[G68Q]", "abundance fitness": "-0.064 ± 0.1"}
{"variant": "NRKASRNAYYFFVQEKIPELRRRGLPVARVADAIPYCSSDWALLREEEKEKYAEMAREWRAAQGKDPRP", "note": "[G68R]", "abundance fitness": "-0.079 ± 0.057"}
{"variant": "NRKASRNAYYFFVQEKIPELRRRGLPVARVADAIPYCSSDWALLREEEKEKYAEMAREWRAAQGKDPWP", "note": "[G68W]", "abundance fitness": "-0.128 ± 0.098"}
{"variant": "NRKASRNAYYFFVQEKIPELRRRGLPVARVADAIPYCSSDWALLREEEKEKYAEMAREWRAAQGKDPSP", "note": "[G68S]", "abundance fitness": "-0.273 ± 0.098"}
